Patent US8440629B2, “Cyclic receptor-associated protein (RAP) peptides” (Raptor Pharmaceuticals Inc., priority 2007, dated 2013)

What was measured:
Experiment in all cases: Solid phase binding assay, LRP2 CR89 mutant
LRP2 CR89 Y1042W (WVWR) = target: T1, LRP2 CR89 Y1042W (WVWR) (Homo sapiens, UniProt P98164, Y1043W)
T1 construct: two CR pairs from LRP2 (CR89, CR3435); made in house; host or cells: E. coli BL21(DE3) CodonPlus-RIPL, pET30(+)a
T1 sequence (P98164 1025-1102 Y1043W): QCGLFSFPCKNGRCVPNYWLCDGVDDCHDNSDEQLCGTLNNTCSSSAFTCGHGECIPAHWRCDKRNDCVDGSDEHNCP
Description: (§1) Each amplified fragment was sequentially digested with BamHI and HindIII and then ligated into similarly digested pET30(+)a. The resulting plasmids encode proteins consisting of N-terminal hexahistidine and S-peptides fused to the CR fragment. Ligation reactions were transformed into XL-Blue MRF′ (Stratagene) by electroporation and plasmids isolated from single colonies. Three mutations, […], V1047D and R1088D, were introduced into the LRP2 CR89 expression plasmid both singly and in combination using Stratagene QuikChange II XL reagents and the primers: […]
(§2) Purified, refolded CR protein (1 μg) was bound to Nunc Maxisorp™ 96-well plates in TBS pH 8 supplemented with 5 mM CaCl2 (TBSC) overnight at 4° C. Wells were washed with TBSC and then blocked with TBSC containing 2% bovine serum albumin (BSA). RAP ligands were then incubated with the immobilized receptor at a range of concentrations for 2 hours in the above blocking buffer supplemented with 0.05% Tween-20 at room temperature. Control wells contained no added ligand. As an additional control, to determine whether the absence of calcium affected binding, 10 mM EGTA was included in the incubation medium for some samples. Wells were washed with TBSTC and bound ligands detected with polyclonal anti-RAP (BP41/42, 1:1,000, BioMarin). Excess primary antibody was removed and wells washed before incubation with the secondary antibody, HRP-conjugated goat anti rabbit IgG (Bio-Rad). After washing, TMB substrate solutions (Bio-Rad) were added to detect HRP. Color development was stopped with 1N HCl. Absorption at 450 nm was measured with a microplate spectrophotometer (Molecular Devices). Data were plotted and Kd values derived by non-linear regression with the assumption of single-site binding (GraphPad Prism).
(§3) One premise of this work was that amino acids at A, C, A′ and C′ within the calcium-binding loops of a CR pair were key determinants of binding affinity for RAP and would be similarly important for binding of RAP variants. To test this idea, mutant LRP2 CR89 were prepared in which the native, non-canonical residues at these positions were sequentially substituted with the non-native, canonical residues. As defined above, the A, C, A′, C′ string for LRP2 CR89 is YVWR. Mutants included LRP2 CR89 Y1042W (WVWR), LRP2 CR89 V1047D (YDWR), LRP2 CR89 R1088D (YVWD), LRP2 CR89 V1047D R1088D (YDWD), LRP2 CR89 Y1042W V1047D R1088D (WDWD), LRP2 CR89 Y1042W V1047D (WDWR), LRP2 CR89 Y1042W R1088D (WVWD). Binding to both RAP d3 and MegaRAP1 d3 were measured for each LRP2 CR89 mutant by solid-phase assay. Only the YVWD mutant retained significant binding to MegaRAP1 d3, with an approximate 2-fold loss of affinity relative to LRP2 CR89 (FIG. 6 and Table 3). […] The A′ position in LRP2 CR89 is a tryptophan, the canonical residue for wild-type RAP d3 binding, and was not mutated in our studies.

LRP2 CR89 V1047D (YDWR) = target: T2, LRP2 CR89 V1047D (YDWR) (Homo sapiens, UniProt P98164, V1048D)
T2 construct: two CR pairs from LRP2 (CR89, CR3435); made in house; host or cells: E. coli BL21(DE3) CodonPlus-RIPL, pET30(+)a
T2 sequence (P98164 1022-1105 V1048D limits assumed): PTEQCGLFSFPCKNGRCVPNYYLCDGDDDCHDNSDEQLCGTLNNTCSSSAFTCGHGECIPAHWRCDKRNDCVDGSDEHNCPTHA
Description: as §1, §2, §3

[1] = target: T3, LRP2 CR89 V1047D R1088D (YDWD) (Homo sapiens, UniProt P98164, R1089D/V1048D)
T3 construct: two CR pairs from LRP2 (CR89, CR3435); made in house; host or cells: E. coli BL21(DE3) CodonPlus-RIPL, pET30(+)a
T3 sequence (P98164 1022-1105 V1048D/R1089D limits assumed): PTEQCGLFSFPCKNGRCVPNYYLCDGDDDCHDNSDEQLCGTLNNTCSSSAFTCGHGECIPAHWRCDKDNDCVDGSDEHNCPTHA
Description: as §1, §2, §3

LRP2 CR89 R1088D (YVWD) = target: T4, LRP2 CR89 R1088D (YVWD) (Homo sapiens, UniProt P98164, R1089D)
T4 construct: two CR pairs from LRP2 (CR89, CR3435); made in house; host or cells: E. coli BL21(DE3) CodonPlus-RIPL, pET30(+)a
T4 sequence (P98164 1022-1105 R1089D limits assumed): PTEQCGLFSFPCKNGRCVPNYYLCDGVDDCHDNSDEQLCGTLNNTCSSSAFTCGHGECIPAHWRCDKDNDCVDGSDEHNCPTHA
Description: as §1, §2, §3

[2] = target: T5, LRP2 CR89 Y1042W V1047D (WDWR) (Homo sapiens, UniProt P98164, V1048D/Y1043W)
T5 construct: two CR pairs from LRP2 (CR89, CR3435); made in house; host or cells: E. coli BL21(DE3) CodonPlus-RIPL, pET30(+)a
T5 sequence (P98164 1025-1102 Y1043W/V1048D): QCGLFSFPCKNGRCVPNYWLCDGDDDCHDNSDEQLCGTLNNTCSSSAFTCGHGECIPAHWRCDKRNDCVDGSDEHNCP
Description: as §1, §2, §3

B1: MegaRAP1 d3: d3 of RAP variant selected on LRP2 CR89: S213T, E217K, H249Y, E251K, K256A, K270E (SEQ ID NO: 93) (protein, listed as Homo sapiens)
chain: LDRLRRVSHQGYSTEAEFEEPRVIDLWDLEQSANLTDKELEAFREELKHFKAKIEAHNHYQKQLEIAHEDLRHAESVGDGERVSRSREKHALLEGRTKELGYTVKKHLQDLSGRISRAR
Question: What does the source list for B1?
Answer: binding (in words) (LRP2 CR89 Y1042W (WVWR)): prevent binding; binding (in words) (LRP2 CR89 V1047D (YDWR)): failed to bind measurably; binding (in words) [1]: failed to bind measurably; loss of affinity relative to LRP2 CR89 (LRP2 CR89 R1088D (YVWD)): ~2 fold; binding (in words) [2]: failed to bind measurably
